Assay results as given in patent publication US20050142141A1 (University of California, published 2005).

Target: T1, soluble extracellular domain (ECD) of the human insulin receptor (human, UniProt P06213 28-956, limits assumed)
T1 construct: extracellular domain; also called HIR ECD; extracellular domain of the HIR
Assay: immunoradiometric assay (IRMA) on HIR ECD with [125I]-murine 83-14 MAb as ligand
Text: In the IRMA, the antigen was the extracellular domain of the HIR, which was produced from transfected CHO cells and purified by lectin affinity chromatography of CHO cell conditioned medium.

Kd [nM]	Binder
2.7	murine 83-14 HIRMAb (antibody, V domains shown, Intact murine IgG from the 83-14 hybridoma; the murine constant regions and isotype are not; also called HIRMAb 83-14; MAb 83-14) VH: QVQLQESGPELVKPGALVKISCKASGYTFTNYDIHWVKQRPGQGLEWIGWIYPGDGSTKYNEKFKGKATLTADKSSSTAYMHLSSLTSEKSAVYFCAREWAYWGQGTLVTVSA VL: DIQMTQSPSSLSASLGERVSLTCRASQDIGGNLYWLQQGPDGTIKRLIYATSSLDSGVPKRFSGSRSGSDYSLTISSLESEDFVDYYCLQYSSSPWTFGGGTKMEIKR
3.7	Version 5 humanized HIRMAb (antibody, human IgG1, V domains shown, also called version 5 HIRMAb; Version 5 humanized 83-14 HIRMAb) VH: QVQLLESGAELVRPGSSVKISCKASGYTFTNYDIHWVKQRPGQGLEWIGWIYPGDGSTKYNEKFKGKATLTADKSSSTAYMHLSSLTSEKSAVYFCAREWAYWGQGTTVTVSA VL: DIQMTQSPSSLSASVGERVTITCRASQDIGGNLYWYQQKPGKAPKLLIYATSSLDSGVPSRFSGSGSGTDYTFTISSLQPEDIATYYCLQYSSSPWTFGQGTKVEIKR
